Data on two molecules can be found in patent publication US20160200782A1 (MOERAE MATRIX, published 2016).

Targets include Tie2(h) (human, UniProt Q02763 771-1124, limits assumed); AMPKa2(h) (human, UniProt P54646 1-552, limits assumed); IRR(h) (human, UniProt P14616 960-1297, limits assumed); CDK2/cyclinA(h) (human, UniProt P24941 1-298; P20248 1-432); SAPK2a(T106M)(h) (human, UniProt Q16539 1-360); KDR(h) (human, UniProt P35968 790-1356, limits assumed); CHK2(h) (human, UniProt O96017 5-543, limits assumed); SAPK2b(h) (human, UniProt Q15759 1-364); Fgr(h) (human, UniProt P09769 1-529, limits assumed); CaMKIIγ(h) (human, UniProt Q13555 1-558, limits assumed).

What all share (assay): cell-based or functional assay
For another assay, the target named is T1, GRK7(h) (human, UniProt Q8WTQ7 1-553, limits assumed).
T1 sequence (looked up): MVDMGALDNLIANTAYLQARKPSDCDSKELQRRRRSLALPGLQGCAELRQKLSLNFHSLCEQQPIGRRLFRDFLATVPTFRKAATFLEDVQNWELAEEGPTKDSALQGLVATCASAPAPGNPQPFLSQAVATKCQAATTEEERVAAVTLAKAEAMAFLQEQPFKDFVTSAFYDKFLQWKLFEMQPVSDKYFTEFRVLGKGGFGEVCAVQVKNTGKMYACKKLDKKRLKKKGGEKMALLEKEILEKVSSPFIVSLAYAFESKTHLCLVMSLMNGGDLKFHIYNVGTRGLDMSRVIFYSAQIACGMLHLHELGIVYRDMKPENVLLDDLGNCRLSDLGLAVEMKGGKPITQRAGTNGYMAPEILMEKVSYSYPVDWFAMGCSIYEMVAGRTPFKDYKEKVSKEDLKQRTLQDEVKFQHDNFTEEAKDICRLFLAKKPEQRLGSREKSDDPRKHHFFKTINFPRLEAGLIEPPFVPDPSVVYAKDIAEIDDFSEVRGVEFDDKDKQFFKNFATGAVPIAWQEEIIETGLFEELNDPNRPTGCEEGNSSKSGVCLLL

A further assay concerns the target T2, IRAK4(h) (human, UniProt Q9NWZ3 1-460, limits assumed).
T2 sequence (looked up): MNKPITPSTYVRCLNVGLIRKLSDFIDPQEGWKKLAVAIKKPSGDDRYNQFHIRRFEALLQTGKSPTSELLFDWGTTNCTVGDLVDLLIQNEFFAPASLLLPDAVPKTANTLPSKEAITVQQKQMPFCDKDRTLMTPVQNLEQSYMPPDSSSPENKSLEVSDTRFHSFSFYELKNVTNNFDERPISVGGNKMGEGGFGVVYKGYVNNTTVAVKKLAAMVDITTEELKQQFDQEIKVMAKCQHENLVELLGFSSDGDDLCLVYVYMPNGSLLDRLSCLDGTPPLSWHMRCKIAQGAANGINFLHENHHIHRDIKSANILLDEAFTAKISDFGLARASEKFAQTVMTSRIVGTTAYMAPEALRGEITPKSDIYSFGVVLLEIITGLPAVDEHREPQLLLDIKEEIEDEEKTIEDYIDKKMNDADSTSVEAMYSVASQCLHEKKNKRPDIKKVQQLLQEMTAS

The target of a further assay is T3, PKG1β(h) (human, UniProt Q13976-2 1-686).
T3 sequence (looked up): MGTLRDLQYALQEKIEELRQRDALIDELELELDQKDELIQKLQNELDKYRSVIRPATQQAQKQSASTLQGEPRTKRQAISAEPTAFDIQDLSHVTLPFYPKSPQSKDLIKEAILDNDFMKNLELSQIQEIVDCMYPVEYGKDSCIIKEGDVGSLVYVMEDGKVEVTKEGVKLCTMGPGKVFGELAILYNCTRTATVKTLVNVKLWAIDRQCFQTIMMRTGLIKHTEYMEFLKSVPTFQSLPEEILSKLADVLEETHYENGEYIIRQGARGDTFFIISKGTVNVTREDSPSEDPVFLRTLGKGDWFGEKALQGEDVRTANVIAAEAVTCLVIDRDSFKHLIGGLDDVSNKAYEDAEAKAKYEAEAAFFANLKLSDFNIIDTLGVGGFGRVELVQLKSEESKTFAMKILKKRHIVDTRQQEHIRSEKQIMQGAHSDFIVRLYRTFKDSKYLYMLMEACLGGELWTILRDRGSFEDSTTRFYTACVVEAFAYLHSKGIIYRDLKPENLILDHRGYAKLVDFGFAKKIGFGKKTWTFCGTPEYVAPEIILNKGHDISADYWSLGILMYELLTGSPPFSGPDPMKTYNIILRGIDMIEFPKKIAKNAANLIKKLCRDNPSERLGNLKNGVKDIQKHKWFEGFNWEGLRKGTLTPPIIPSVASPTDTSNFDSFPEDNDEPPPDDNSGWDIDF

Another assay addresses T4, EphA1(h) (human, UniProt P21709 569-976, limits assumed).
T4 sequence (looked up): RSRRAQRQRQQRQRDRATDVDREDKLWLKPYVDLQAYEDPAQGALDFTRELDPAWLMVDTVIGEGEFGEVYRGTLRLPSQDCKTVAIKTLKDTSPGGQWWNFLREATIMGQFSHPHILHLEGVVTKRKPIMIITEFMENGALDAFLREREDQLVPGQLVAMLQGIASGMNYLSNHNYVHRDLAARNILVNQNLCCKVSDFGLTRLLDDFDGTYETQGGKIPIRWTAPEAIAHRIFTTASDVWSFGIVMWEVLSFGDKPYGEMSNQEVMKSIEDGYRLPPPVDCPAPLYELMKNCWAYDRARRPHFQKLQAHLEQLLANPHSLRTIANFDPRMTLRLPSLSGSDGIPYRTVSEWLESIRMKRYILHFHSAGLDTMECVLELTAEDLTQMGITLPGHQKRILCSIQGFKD
Further: test concentration or dose not given here.

Sequence of CHK2(h) (O96017 5-543 limits assumed): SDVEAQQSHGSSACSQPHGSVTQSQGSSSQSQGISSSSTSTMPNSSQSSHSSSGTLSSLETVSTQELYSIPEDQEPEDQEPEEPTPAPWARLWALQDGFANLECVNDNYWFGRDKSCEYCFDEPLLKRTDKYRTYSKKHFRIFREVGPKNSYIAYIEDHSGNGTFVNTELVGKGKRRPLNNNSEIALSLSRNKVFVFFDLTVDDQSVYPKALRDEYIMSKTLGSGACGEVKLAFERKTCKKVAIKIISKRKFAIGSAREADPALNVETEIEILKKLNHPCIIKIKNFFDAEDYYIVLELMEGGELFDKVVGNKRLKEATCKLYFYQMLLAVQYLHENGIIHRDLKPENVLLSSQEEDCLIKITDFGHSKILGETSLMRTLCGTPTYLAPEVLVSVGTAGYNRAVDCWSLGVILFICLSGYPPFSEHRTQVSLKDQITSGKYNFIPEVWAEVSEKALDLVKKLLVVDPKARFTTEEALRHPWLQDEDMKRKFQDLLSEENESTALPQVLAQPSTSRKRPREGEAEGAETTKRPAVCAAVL
Sequence of SAPK2b(h) (Q15759 whole entry): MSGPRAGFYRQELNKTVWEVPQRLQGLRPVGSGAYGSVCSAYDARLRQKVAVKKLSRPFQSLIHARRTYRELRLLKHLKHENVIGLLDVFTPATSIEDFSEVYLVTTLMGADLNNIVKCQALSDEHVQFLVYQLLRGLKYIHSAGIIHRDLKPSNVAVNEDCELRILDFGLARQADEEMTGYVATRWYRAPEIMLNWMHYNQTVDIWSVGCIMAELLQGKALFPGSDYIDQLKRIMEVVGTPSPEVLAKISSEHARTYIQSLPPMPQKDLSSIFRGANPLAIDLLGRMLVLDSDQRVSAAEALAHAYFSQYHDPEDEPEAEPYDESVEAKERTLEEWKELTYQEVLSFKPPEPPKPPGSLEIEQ
Sequence of KDR(h) (P35968 790-1356 limits assumed): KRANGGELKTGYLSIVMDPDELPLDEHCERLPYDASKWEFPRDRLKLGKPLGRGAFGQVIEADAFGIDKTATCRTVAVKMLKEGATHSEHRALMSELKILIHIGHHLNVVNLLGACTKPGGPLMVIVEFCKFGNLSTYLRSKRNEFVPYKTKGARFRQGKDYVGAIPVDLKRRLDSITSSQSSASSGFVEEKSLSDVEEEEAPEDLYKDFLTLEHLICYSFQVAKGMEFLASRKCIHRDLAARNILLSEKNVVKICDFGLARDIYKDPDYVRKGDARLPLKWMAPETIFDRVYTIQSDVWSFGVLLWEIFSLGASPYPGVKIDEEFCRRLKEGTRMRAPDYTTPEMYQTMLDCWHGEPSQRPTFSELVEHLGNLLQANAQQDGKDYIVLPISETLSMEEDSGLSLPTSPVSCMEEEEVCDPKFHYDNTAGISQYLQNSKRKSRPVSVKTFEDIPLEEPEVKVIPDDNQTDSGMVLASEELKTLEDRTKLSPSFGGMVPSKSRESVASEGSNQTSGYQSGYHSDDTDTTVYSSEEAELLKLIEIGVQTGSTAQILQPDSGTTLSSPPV
Sequence of IRR(h) (P14616 960-1297 limits assumed): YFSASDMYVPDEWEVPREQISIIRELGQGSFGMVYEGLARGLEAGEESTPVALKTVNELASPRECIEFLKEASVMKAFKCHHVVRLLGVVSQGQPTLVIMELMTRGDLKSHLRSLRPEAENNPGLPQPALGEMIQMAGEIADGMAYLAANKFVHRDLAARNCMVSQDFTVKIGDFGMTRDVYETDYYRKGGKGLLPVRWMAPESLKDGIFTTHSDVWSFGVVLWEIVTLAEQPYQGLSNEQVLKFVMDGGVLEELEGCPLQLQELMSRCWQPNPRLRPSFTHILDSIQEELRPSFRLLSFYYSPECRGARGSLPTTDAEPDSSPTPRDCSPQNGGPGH
Sequence of CaMKIIγ(h) (Q13555 whole entry): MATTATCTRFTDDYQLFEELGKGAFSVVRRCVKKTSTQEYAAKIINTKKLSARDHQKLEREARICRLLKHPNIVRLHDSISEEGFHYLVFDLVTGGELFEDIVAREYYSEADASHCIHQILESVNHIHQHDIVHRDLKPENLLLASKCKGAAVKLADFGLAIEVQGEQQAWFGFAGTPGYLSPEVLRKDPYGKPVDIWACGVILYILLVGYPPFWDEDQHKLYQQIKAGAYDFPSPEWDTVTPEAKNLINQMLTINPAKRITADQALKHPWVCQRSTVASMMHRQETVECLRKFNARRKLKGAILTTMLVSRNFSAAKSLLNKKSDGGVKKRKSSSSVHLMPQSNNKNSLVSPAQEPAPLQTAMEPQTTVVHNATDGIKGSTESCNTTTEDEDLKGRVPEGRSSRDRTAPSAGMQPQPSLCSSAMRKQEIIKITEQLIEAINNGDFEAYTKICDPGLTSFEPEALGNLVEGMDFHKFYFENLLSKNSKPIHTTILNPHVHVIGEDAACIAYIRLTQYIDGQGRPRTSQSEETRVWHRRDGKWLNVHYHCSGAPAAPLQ
Sequence of Tie2(h) (Q02763 771-1124 limits assumed): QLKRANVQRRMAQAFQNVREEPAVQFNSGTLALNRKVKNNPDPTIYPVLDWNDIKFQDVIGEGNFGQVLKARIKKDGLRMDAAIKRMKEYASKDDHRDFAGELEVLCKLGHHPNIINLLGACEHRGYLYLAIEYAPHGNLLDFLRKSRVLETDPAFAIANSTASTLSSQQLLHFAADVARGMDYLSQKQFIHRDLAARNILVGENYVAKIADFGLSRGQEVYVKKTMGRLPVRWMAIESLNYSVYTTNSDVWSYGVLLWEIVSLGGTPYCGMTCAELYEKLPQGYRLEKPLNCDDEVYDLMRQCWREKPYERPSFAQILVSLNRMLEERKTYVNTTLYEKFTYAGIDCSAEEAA
Sequence of AMPKa2(h) (P54646 whole entry): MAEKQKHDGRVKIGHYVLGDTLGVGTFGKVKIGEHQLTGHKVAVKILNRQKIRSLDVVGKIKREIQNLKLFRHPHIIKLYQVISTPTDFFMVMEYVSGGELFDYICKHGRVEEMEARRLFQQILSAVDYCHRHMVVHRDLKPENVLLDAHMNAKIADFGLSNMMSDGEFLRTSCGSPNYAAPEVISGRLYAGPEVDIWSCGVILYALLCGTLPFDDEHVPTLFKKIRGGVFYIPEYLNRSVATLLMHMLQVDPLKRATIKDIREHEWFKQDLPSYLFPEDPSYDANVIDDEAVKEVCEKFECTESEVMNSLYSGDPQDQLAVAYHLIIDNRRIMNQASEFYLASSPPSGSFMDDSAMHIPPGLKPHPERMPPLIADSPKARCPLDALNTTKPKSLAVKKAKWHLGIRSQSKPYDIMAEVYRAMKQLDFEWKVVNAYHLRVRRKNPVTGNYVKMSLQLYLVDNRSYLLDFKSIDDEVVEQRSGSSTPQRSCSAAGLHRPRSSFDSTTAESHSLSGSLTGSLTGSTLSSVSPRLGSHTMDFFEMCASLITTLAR
Sequence of SAPK2a(T106M)(h) (Q16539 whole entry T106M): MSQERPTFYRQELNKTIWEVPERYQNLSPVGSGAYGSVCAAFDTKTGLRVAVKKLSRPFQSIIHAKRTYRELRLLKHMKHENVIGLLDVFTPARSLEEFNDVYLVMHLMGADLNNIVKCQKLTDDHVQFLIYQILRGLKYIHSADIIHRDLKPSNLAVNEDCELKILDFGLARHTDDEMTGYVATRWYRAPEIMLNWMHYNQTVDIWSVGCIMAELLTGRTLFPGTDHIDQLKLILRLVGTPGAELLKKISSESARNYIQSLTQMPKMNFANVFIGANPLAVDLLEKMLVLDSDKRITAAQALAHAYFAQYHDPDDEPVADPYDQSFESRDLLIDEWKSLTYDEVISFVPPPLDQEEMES

B1: MMI-0400 (peptide)
peptide: KAFAKLAARLYRKALARQLGVAA
As for B1, the “% activity” value with Tie2(h) turned out to be 21%; with AMPKa2(h), 58%; in the assay with IRR(h), 8%; in the assay with CDK2/cyclinA(h) it was 92%; in the assay with SAPK2a(T106M)(h), 99%; with GRK7(h), 100%. The “% activity” value amounted to 59% with IRAK4(h); 94% in the assay with KDR(h); 53% with PKG1β(h); 54% with CHK2(h); 82% with SAPK2b(h); 61% with EphA1(h). Moreover, the “% activity” value with Fgr(h) came out at 47%; in the assay with CaMKIIγ(h) it was 3%.

B2: MMI-0300 (peptide)
peptide: FAKLAARLYRKALARQLGVAA
For B2, the “% activity” value with Tie2(h) was 26%; in the assay with AMPKa2(h), 54%; with IRR(h), 8%; with CDK2/cyclinA(h), 86%; with SAPK2a(T106M)(h), 97%; with GRK7(h) it was 122%. Further, the “% activity” value with IRAK4(h) was found to be 59%; with KDR(h), 101%; with PKG1β(h), 50%; with CHK2(h) it was 66%; with SAPK2b(h) it was 81%; with EphA1(h) it was 73%. Besides, the “% activity” value in the assay with Fgr(h) turned out to be 60%; with CaMKIIγ(h) it was 5%.
